# Laboratory results as given in PMC4376263 (International Journal of Nanomedicine, 2015).
# Several values for one entry are separate records, joined by “and”; a condition that tells them apart may be missing. Equal values may be shown once. Read-outs that look alike come from different tables or passages of the source.
# Experiments:
# [1] = Critical micelle concentration; format: physicochemical; conditions: aqueous medium, coumarin-6 probe
# [2] = In vitro drug release by dialysis; format: physicochemical; conditions: by 48 hours, 37°C, pH 6.5 PBS, pH 7.4 PBS, 25% liver homogenate, 50% plasma; P<0.05
# Drug-loading measurement = format: physicochemical; conditions: weight of SN38 / weight of prodrug, HPLC with UV detector, triplicate
# CT26 tumor xenograft = format: in vivo, BALB/c mice; conditions: for Body weight Final / Body weight Initial / IRT (inhibition ratio of the tumor) / Tumor weight Mean ± SD: n=8; for Histological section examination of tumor (H&E): day 14
# [3] = test system: murine colon adenocarcinoma cell line CT26; assay: In vitro cytotoxicity; format: cell-based; conditions: for fold more potent than CPT-11: ratio of IC50 values
# [4] = Particle size and zeta potential of micelles; format: physicochemical; conditions: 25°C, n=3
# [5] = Pharmacokinetic study after intravenous administration to SD rats; conditions: n=6; for Cmax of free SN38: free SN38 in plasma, intravenous 10 mg/kg (equivalent to SN38); for AUC0–24 of prodrug / Cmax of prodrug: prodrug form in plasma (equivalent to SN38); for AUC0–24 of prodrug / Cmax of prodrug / CL of prodrug / MRT0–24 of prodrug / T1/2 of prodrug: intravenous 10 mg/kg; for CL of prodrug / MRT0–24 of prodrug / T1/2 of prodrug: prodrug form in plasma
# [6] = 1.25 mg/kg (equivalent to SN38) i.v. every 2 days for 2 weeks
# [7] = 2.5 mg/kg (equivalent to SN38) i.v. every 2 days for 2 weeks
# [8] = CT26 cells, 48 hours incubation, MTT, equivalent to SN38, mean ± SD, n=3
Compound,CMC (critical micelle concentration) [1] [µg/mL],drug loading (Drug-loading measurement),Body weight Final (CT26 tumor xenograft; [6]) [g],Body weight Initial (CT26 tumor xenograft; [6]) [g],IRT (inhibition ratio of the tumor) (CT26 tumor xenograft; [6]) [%],Tumor weight Mean ± SD (CT26 tumor xenograft; [6]) [g],Histological section examination of tumor (H&E) (CT26 tumor xenograft; 1.25 mg/kg),Body weight Final (CT26 tumor xenograft; [7]) [g],Body weight Initial (CT26 tumor xenograft; [7]) [g],IRT (inhibition ratio of the tumor) (CT26 tumor xenograft; [7]),Tumor weight Mean ± SD (CT26 tumor xenograft; [7]) [g],Histological section examination of tumor (H&E) (CT26 tumor xenograft; 2.5 mg/kg),"IC50 [3, 8] [µM]",fold more potent than CPT-11 ([3]; CT26 cells) [fold],mean particle size [4] [nm],mean zeta potential [4] [mV],Cmax of free SN38 [5],AUC0–24 of prodrug [5],Cmax of prodrug [5],CL of prodrug [5] [L/h/kg],other results
chitosan-(C20-OH)SN38 [CS-(20s)SN38],12,17.4%±0.8%,24.1 ± 1.31,20.6 ± 1.31,31,2.24 ± 0.27,Partial tumor tissue necrosis,21.5 ± 2.52,19.6 ± 1.57,"64.7% and 64.7 ^a, ^c, ^d %",1.15 ± 0.09,extensive tissue necrosis,1.8,25.9,122.4±1.1,22.3±0.4,"2,489.43±153.63 μg/L",133.07±11.10 ×10^3 μg⋅h/L,48.43±4.27 ×10^3 μg/L,0.07 ± 0.01,drug release compared with CS-(10s)SN38 [2]: slower drug release; MRT0–24 of prodrug [5]: 4.94 ± 1.58 h; T1/2 of prodrug [5]: 7.05 ± 2.04 h
"CCc1c2c(nc3ccc(OC(=O)N4CCC(N5CCCCC5)CC4)cc13)-c1cc3c(c(=O)n1C2)COC(=O)[C@]3(O)CC [CPT-11, irinotecan, reference compound]",,,,,,,,23.6 ± 1.67,19.8 ± 1.73,23.5%,2.51 ± 0.36,Partial tumor tissue necrosis,,,,,,,,,"IC50 ([3]; Mus musculus, CT26, 48 h): 46.7 µM"
chitosan-(C10-OH)SN38 [CS-(10s)SN38],15,16.5%±0.7%,24.6 ± 1.24,20.0 ± 1.73,27.7,2.37 ± 0.19,Partial tumor tissue necrosis,22.7 ± 1.96,20.4 ± 2.11,"47.8 ^a, ^b %",1.71 ± 0.21,extensive tissue necrosis,3.5,13.3,128.0±1.8,21.1±0.5,"3,057.78±637.61 μg/L",89.84±8.01 ×10^3 μg⋅h/L,46.89±6.56 ×10^3 μg/L,0.11 ± 0.01,MRT0–24 of prodrug [5]: 4.90 ± 0.66 h; T1/2 of prodrug [5]: 5.40 ± 1.29 h
"CCc1c2c(nc3ccc(O)cc13)-c1cc3c(c(=O)n1C2)COC(=O)[C@]3(O)CC [SN38, 7-Ethyl-10-hydroxycamptothecin, reference compound]",,,,,,,,,,,,,,,,,,,,,"IC50 ([3]; Mus musculus, CT26, 48 h): 0.0204 ± 0.0018 µM"
